Our source for the dwell time in the slow-diffusion state, occupancy in the slow state (after cell sorting by size) and steady-state fraction in the slow-diffusion state values is publication PMC12297416.

This assay deals with NusA (E. coli (endogenous in MG1655)) (UniProt P0AFF6). The experiment in a line: single-molecule tracking in live cells; HaloTag fusions labelled with JFX549 in growing E. coli at 37 °C; 5 ms camera exposure; HMM fit of diffusion trajectories, 5-state models coarse-grained with a threshold at 1 µm^2/s (slow diffusion state = bound).

“IF2-Domain-I-HaloTag (domain or fragment)” returned a dwell time in the slow-diffusion state of 30 ms, an occupancy in the slow state (after cell sorting by size) of 11% and a steady-state fraction in the slow-diffusion state of 14%.
